Patent US9260500B2, “Peptide and use thereof” (Takeda Pharmaceutical Company Limited, priority 2009, dated 2016)
Non-standard residues stand in square brackets, D forms with d. *: point of attachment. X9 = (cis-2,6-dimethylmorpholin-4-yl)carbonyl, C[C@@H]1CN(C(=O)*)C[C@H](C)O1; X2 = (tetrahydro-2H-pyran-4-ylmethyl)carbamoyl, O=C(NCC1CCOCC1)*; X5 = tetrahydro‑2H‑pyran‑4‑yl‑carbamoyl, O=C(NC1CCOCC1)*; (2-amino-2-oxoethyl)carbamoyl = NC(=O)CNC(=O)*; 2Nal = N[C@@H](Cc1ccc2ccccc2c1)C(=O)O; Arg(Me) = CNC(=N)NCCC[C@H](N)C(=O)O; 4Pal = N[C@@H](Cc1ccncc1)C(=O)O; dHyp = O=C(O)[C@H]1C[C@H](O)CN1; Cha = N[C@@H](CC1CCCCC1)C(=O)O; Isonicotinoyl = O=C(c1ccncc1)*; Iva = CC[C@](C)(N)C(=O)O; Nle = CCCC[C@H](N)C(=O)O; Aib = CC(C)(N)C(=O)O

Columns and labels:
human Y2 receptor [1] = target: T1, human Y2 receptor (Homo sapiens, UniProt P49146); assay: Receptor Binding Assay (RBA) for Human Y2, [125I]-PYY displacement on hY2R/CHO membrane fraction; conditions: IC50 of test compound/IC50 of PYY(3-36) (PYY(3-36) taken as 1)
T1 construct: expressed in transfected cells; membrane fraction
T1 sequence (P49146 1-381): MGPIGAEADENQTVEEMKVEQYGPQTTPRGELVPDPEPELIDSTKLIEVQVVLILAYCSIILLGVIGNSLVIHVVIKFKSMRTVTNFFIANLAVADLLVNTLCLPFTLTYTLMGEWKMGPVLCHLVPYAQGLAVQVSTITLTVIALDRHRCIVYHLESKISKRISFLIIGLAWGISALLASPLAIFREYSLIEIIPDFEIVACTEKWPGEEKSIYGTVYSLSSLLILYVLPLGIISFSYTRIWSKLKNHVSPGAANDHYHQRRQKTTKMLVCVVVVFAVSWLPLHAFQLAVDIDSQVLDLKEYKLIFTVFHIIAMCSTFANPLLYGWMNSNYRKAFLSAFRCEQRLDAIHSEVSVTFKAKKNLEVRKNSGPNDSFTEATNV
Outline: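 hY2R stably expressed in CHO/dhfr− cells; membrane fraction prepared from cells disrupted in 10 mM NaHCO3, 5 mM EDTA buffer with protease inhibitors. Binding read as displacement of [125I]-PYY.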

male C57EL/6J mice = assay: 3-Days Continuous Subcutaneous Administration Test-1 (food intake suppressing activity); type: in vivo, mouse; conditions: 0.03 mg/kg/day, subcutaneous Alzet pump, food consumption over 3 days; relative to food intake suppression rate for PYY(3-36) (1 mg/kg/day) taken as 100%
Outline: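 Male […] mice, 12-13 weeks, received compound at 0.03 mg/kg/day by subcutaneous osmotic pump (50% DMSO vehicle), housed singly with free food access. Food consumed over 3 days measured; suppression expressed relative to PYY(3-36) (1 mg/kg/day) set as 100%.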

human Y2 receptor [2] = target: T1, human Y2 receptor; assay: Human Y2 Receptor G Protein Binding Assay (GBA), [35S]GTPγS; type: biochemical; conditions: EC50 of test compound/EC50 of PYY(3-36) (PYY3-36 taken as 1), hY2R/CHO membrane fraction
Outline: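 Agonism measured as [35S]GTPγS binding, read by GF/C filtration and scintillation counting after 120 min at room temperature, using human Y2 membranes at 1 μg protein/mL in pH 7.4 Tris/MgCl2/NaCl/GDP buffer. Compound serially diluted 100 μM–1 nM; EC50 normalized to PYY(3-36) (ratio = compound/PYY).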

Substance | RBA IC50 Ratio (human Y2 receptor [1]) | GBA EC50 Ratio (human Y2 receptor [2]) | food intake suppression rate (%) (male C57EL/6J mice)
Ac-[D-Pro24, Arg(Me)25,30, Pya(4)26, Cha27,36, Aib28,31]-PYY(23-36) (Ac-S[dP][Arg(Me)][4Pal][Cha][Aib]N[Arg(Me)][Aib]TRQR[Cha]-NH2; SMILES CNC(=N)NCCC[C@H](NC(=O)[C@H](CC(N)=O)NC(=O)C(C)(C)NC(=O)[C@H](CC1CCCCC1)NC(=O)[C@H](Cc1ccncc1)NC(=O)[C@H](CCCNC(=N)NC)NC(=O)[C@H]1CCCN1C(=O)[C@H](CO)NC(C)=O)C(=O)NC(C)(C)C(=O)N[C@H](C(=O)N[C@@H](CCCNC(=N)N)C(=O)N[C@@H](CCC(N)=O)C(=O)N[C@@H](CCCNC(=N)N)C(=O)N[C@@H](CC1CCCCC1)C(N)=O)[C@@H](C)O) [compound No. 315] | 1.5 | 1.5 | 45
Tetrahydro-2H-pyran-4-yl-carbamoyl-[Glu23, D-Pro24, Pya(4)26, Cha27,36, Aib28,31, Lys30]-PYY(23-36) (X5-E[dP]R[4Pal][Cha][Aib]NK[Aib]TRQR[Cha]-NH2; ends and bridges not checked) [compound No. 282] | 1.1 | 1.6 | 30
Ac-[D-Pro24, Nle25, Pya(4)26, Cha27,36, Aib28,31, Lys30]-PYY(23-36) (Ac-S[dP][Nle][4Pal][Cha][Aib]NK[Aib]TRQR[Cha]-NH2; SMILES CCCC[C@H](NC(=O)[C@H]1CCCN1C(=O)[C@H](CO)NC(C)=O)C(=O)N[C@@H](Cc1ccncc1)C(=O)N[C@@H](CC1CCCCC1)C(=O)NC(C)(C)C(=O)N[C@@H](CC(N)=O)C(=O)N[C@@H](CCCCN)C(=O)NC(C)(C)C(=O)N[C@H](C(=O)N[C@@H](CCCNC(=N)N)C(=O)N[C@@H](CCC(N)=O)C(=O)N[C@@H](CCCNC(=N)N)C(=O)N[C@@H](CC1CCCCC1)C(N)=O)[C@@H](C)O) [compound No. 224] | 3.0 | 2.4 | 30
Ac-[D-Pro24, Pya(4)26, Nal(2)27, Aib28,31, Lys30, Cha36]-PYY(23-36) (Ac-S[dP]R[4Pal][2Nal][Aib]NK[Aib]TRQR[Cha]-NH2; SMILES CC(=O)N[C@@H](CO)C(=O)N1CCC[C@@H]1C(=O)N[C@@H](CCCNC(=N)N)C(=O)N[C@@H](Cc1ccncc1)C(=O)N[C@@H](Cc1ccc2ccccc2c1)C(=O)NC(C)(C)C(=O)N[C@@H](CC(N)=O)C(=O)N[C@@H](CCCCN)C(=O)NC(C)(C)C(=O)N[C@H](C(=O)N[C@@H](CCCNC(=N)N)C(=O)N[C@@H](CCC(N)=O)C(=O)N[C@@H](CCCNC(=N)N)C(=O)N[C@@H](CC1CCCCC1)C(N)=O)[C@@H](C)O) [compound No. 307] | 7.2 | 4.0 | 22
2-Methylbutanoyl-[D-Pro24, Pya(4)26, Cha27,36, Aib28,31, Lys30]-PYY(23-36) ({2‑methylbutanoyl}-S[dP]R[4Pal][Cha][Aib]NK[Aib]TRQR[Cha]-NH2) [compound No. 276] | 0.54 | 0.78 | 16
Ac-[D-Pro24, Pya(4)26, Cha27,36, Aib28,31, Lys30]-PYY(23-36) [compound No. 138] | 1.8 | 1.3 | 38
4-Pyridinecarbonyl-[D-Pro24, Iva25, Pya(4)26, Cha27,36, Aib28,31, Lys30]-PYY(23-36) (Isonicotinoyl-S[dP][Iva][4Pal][Cha][Aib]NK[Aib]TRQR[Cha]-NH2; SMILES CC[C@](C)(NC(=O)[C@H]1CCCN1C(=O)[C@H](CO)NC(=O)c1ccncc1)C(=O)N[C@@H](Cc1ccncc1)C(=O)N[C@@H](CC1CCCCC1)C(=O)NC(C)(C)C(=O)N[C@@H](CC(N)=O)C(=O)N[C@@H](CCCCN)C(=O)NC(C)(C)C(=O)N[C@H](C(=O)N[C@@H](CCCNC(=N)N)C(=O)N[C@@H](CCC(N)=O)C(=O)N[C@@H](CCCNC(=N)N)C(=O)N[C@@H](CC1CCCCC1)C(N)=O)[C@@H](C)O) [compound No. 301] | 1.0 | 1.1 | 35

Now from value to substance, other results behind:

RBA IC50 Ratio (human Y2 receptor [1]) | GBA EC50 Ratio (human Y2 receptor [2]) | Substance | food intake suppression rate (%) (male C57EL/6J mice)
1.7 | 1.9 | (Tetrahydro-2H-pyran-4-ylmethyl)carbamoyl-[D-Pro24, Iva25, Pya(4)26, Cha27,36, Aib28,31, Lys30]-PYY(23-36) (X2-S[dP][Iva][4Pal][Cha][Aib]NK[Aib]TRQR[Cha]-NH2; SMILES CC[C@](C)(NC(=O)[C@H]1CCCN1C(=O)[C@H](CO)NC(=O)NCC1CCOCC1)C(=O)N[C@@H](Cc1ccncc1)C(=O)N[C@@H](CC1CCCCC1)C(=O)NC(C)(C)C(=O)N[C@@H](CC(N)=O)C(=O)N[C@@H](CCCCN)C(=O)NC(C)(C)C(=O)N[C@H](C(=O)N[C@@H](CCCNC(=N)N)C(=O)N[C@@H](CCC(N)=O)C(=O)N[C@@H](CCCNC(=N)N)C(=O)N[C@@H](CC1CCCCC1)C(N)=O)[C@@H](C)O) [compound No. 340] | 27
1.1 | 1.3 | Ac-[D-Pro24, Arg(Me)25, Pya(4)26, Cha27,36, Aib28,31, Lys30]-PYY(23-36) [compound No. 319] | 40
0.99 | 1.3 | 4-Imidazolecarbonyl-[D-Hyp24, Iva25,28, Pya(4)26, Cha27,36, Lys30, Adb31]-PYY(23-36) [compound No. 337] | 49
1.2 | 0.74 | (2-amino-2-oxoethyl)carbamoyl-[D-Pro24, Pya(4)26, Cha27,36, Aib28,31, Lys30]-PYY(23-36) ({(2-amino-2-oxoethyl)carbamoyl}-S[dP]R[4Pal][Cha][Aib]NK[Aib]TRQR[Cha]-NH2; SMILES C[C@@H](O)[C@H](NC(=O)C(C)(C)NC(=O)[C@H](CCCCN)NC(=O)[C@H](CC(N)=O)NC(=O)C(C)(C)NC(=O)[C@H](CC1CCCCC1)NC(=O)[C@H](Cc1ccncc1)NC(=O)[C@H](CCCNC(=N)N)NC(=O)[C@H]1CCCN1C(=O)[C@H](CO)NC(=O)NCC(N)=O)C(=O)N[C@@H](CCCNC(=N)N)C(=O)N[C@@H](CCC(N)=O)C(=O)N[C@@H](CCCNC(=N)N)C(=O)N[C@@H](CC1CCCCC1)C(N)=O) [compound No. 292] | 36
1.9 | 1.7 | 4-Imidazolecarbonyl-[Aib24,28,31, Iva25, Pya(4)26, Cha27,36, Lys30]-PYY(23-36) [compound No. 344] | 22
0.91 | 0.65 | (cis-2,6-Dimethylmorpholin-4-yl)carbonyl-[D-Pro24, Pya(4)26, Cha27,36, Aib28,31, Lys30]-PYY(23-36) (X9-S[dP]R[4Pal][Cha][Aib]NK[Aib]TRQR[Cha]-NH2; SMILES C[C@@H]1CN(C(=O)N[C@@H](CO)C(=O)N2CCC[C@@H]2C(=O)N[C@@H](CCCNC(=N)N)C(=O)N[C@@H](Cc2ccncc2)C(=O)N[C@@H](CC2CCCCC2)C(=O)NC(C)(C)C(=O)N[C@@H](CC(N)=O)C(=O)N[C@@H](CCCCN)C(=O)NC(C)(C)C(=O)N[C@H](C(=O)N[C@@H](CCCNC(=N)N)C(=O)N[C@@H](CCC(N)=O)C(=O)N[C@@H](CCCNC(=N)N)C(=O)N[C@@H](CC2CCCCC2)C(N)=O)[C@@H](C)O)C[C@H](C)O1) [compound 269] | 11
0.8 | 1.3 | Ac-[Glu23, D-Hyp24, Cha27,28,36, Lys30, Aib31]-PYY(23-36) (Ac-E[dHyp]RH[Cha][Cha]NK[Aib]TRQR[Cha]-NH2; SMILES CC(=O)N[C@@H](CCC(=O)O)C(=O)N1C[C@@H](O)C[C@@H]1C(=O)N[C@@H](CCCNC(=N)N)C(=O)N[C@@H](Cc1c[nH]cn1)C(=O)N[C@@H](CC1CCCCC1)C(=O)N[C@@H](CC1CCCCC1)C(=O)N[C@@H](CC(N)=O)C(=O)N[C@@H](CCCCN)C(=O)NC(C)(C)C(=O)N[C@H](C(=O)N[C@@H](CCCNC(=N)N)C(=O)N[C@@H](CCC(N)=O)C(=O)N[C@@H](CCCNC(=N)N)C(=O)N[C@@H](CC1CCCCC1)C(N)=O)[C@@H](C)O) [compound No. 204] | 16
